Target: T1, angiotensin type 2 receptor (human (endogenous in RPTCs), UniProt P50052 1-363)
T1 sequence (looked up): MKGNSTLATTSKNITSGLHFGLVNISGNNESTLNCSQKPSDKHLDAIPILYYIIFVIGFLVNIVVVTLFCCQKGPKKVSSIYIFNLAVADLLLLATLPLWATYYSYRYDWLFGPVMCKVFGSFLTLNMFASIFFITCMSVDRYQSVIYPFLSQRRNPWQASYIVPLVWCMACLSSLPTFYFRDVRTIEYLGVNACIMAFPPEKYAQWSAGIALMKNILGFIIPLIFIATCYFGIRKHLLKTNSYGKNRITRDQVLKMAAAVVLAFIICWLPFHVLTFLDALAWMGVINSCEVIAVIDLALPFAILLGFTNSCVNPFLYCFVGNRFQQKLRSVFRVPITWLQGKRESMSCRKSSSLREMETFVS
Assay: FRET or BRET

B1: dopamine D1 receptor (receptor, human (endogenous in nRPTCs), UniProt P21728 1-446, looked up)
chain: MRTLNTSAMDGTGLVVERDFSVRILTACFLSLLILSTLLGNTLVCAAVIRFRHLRSKVTNFFVISLAVSDLLVAVLVMPWKAVAEIAGFWPFGSFCNIWVAFDIMCSTASILNLCVISVDRYWAISSPFRYERKMTPKAAFILISVAWTLSVLISFIPVQLSWHKAKPTSPSDGNATSLAETIDNCDSSLSRTYAISSSVISFYIPVAIMIVTYTRIYRIAQKQIRRIAALERAAVHAKNCQTTTGNGKPVECSQPESSFKMSFKRETKVLKTLSVIMGVFVCCWLPFFILNCILPFCGSGETQPFCIDSNTFDVFVWFGWANSSLNPIIYAFNADFRKAFSTLLGCYRLCPATNNAIETVSINNNGAAMFSSHHEPRGSISKECNLVYLIPHAVGSSEDLKKEEAAGIARPLEKLSPALSVILDYDTDVSLEKIQPITQNGQHPT
fold increase of corrected FRET after FEN stimulation vs. control: 1.96 fold
